In the supplement of paper PMC9732359:
± gives the uncertainty stated by the source.

test: protein stability index of a GFP-peptide fusion (yeast GPS) (PSI 1-4); higher = more stable; sorted into four equal gates, so the index is relative within each strain; details: san1∆
Procedure, shortened: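 Plasmids isolated from each sorting gate were PCR-amplified and Illumina-sequenced, and barcodes assigned the reads to strains. The gates, four of equal size, were set by GFP/Cherry fluorescence ratio on mid-log cultures in leucine-free medium. These cultures were yeast carrying a pooled library of tiled 17-residue yeast protein peptides fused downstream of GFP on a plasmid that also expresses Cherry. The protein stability index is the sum of every gate's read frequency times its gate number.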

Sequence	protein stability index
FKLPKKFPPPTPLLENI [BRR2]	2.31 ± 0.061
FKLSSESVIEQIVKYAR [RPS13]	2.63 ± 0.097
FKNTRETAQAINGWELT [RPL17A]	2.06 ± 0.062
FKSTMLQVSEKDLFELE [ARP7]	1.1 ± 0.16
FLARVIKEKFDEFIKTH [IRR1]	2.8 ± 0.059
FLELTRRADVKTATVKI [RPL38]	2.02 ± 0.077
FLKEKDTVAELQAQLDY [FAS2]	3.15 ± 0.051
FLKYYGAHKFLDTYLPE [SIR2]	1.37 ± 0.1
FLLVPSKQVQVSQQPLS [ECM29]	1.42 ± 0.11
FLNEARDKAGRLAEVNL [RPO21]	2.06 ± 0.13
FLNHAFDYMNRYWVQKE [CDC53]	1.89 ± 0.067
FLSQGLHVVITLLREVV [CSN12]	1.91 ± 0.093
FLYEILSSLKSFAIYSS [SRB8]	1.34 ± 0.099
FMHDPSVFYNIANMVLP [SIR2]	1.85 ± 0.054
FMRQNLEWNMANLLFKK [RPC82]	2.49 ± 0.082
FNFVLLGQIGACHVEVP [COB]	1.2 ± 0.17
FNLISNAGTEKEKESKK [YLR335W/NUP2]	3.44 ± 0.044
FNNQGKLDLFKYFTELS [MED1]	2.92 ± 0.056
FNRENKVSPADAAKKAL [RPS26A]	3.17 ± 0.048
FNTNFDDEFGDLDAVFF [SNF6]	2.77 ± 0.054
FPLCVHLVSNELEQLSS [RPL10]	2.52 ± 0.089
FPRTRFEAQIDSVEFIF [RPN10]	2.62 ± 0.11
FQKETNMKVTILHGSKS [PRP28]	3.21 ± 0.093
FQLVNDVMDELITSSAR [SIR3]	3.42 ± 0.068
FQQQQQQQQQQQQPQPQ [PGD1]	2.46 ± 0.2

Sequence	protein stability index
FQVHERLAPLIKEENDM [ARP7]	2.97 ± 0.15
FREAIVATEPLLDILVK [PRP8]	1.96 ± 0.1
FRENMSKEETVDFIKHS [PRE3]	3.16 ± 0.066
FRFDSIQRETLLPTNNG [GRR1]	2.69 ± 0.04
FRGARKNKGLVVSPYDY [DIB1]	2.53 ± 0.09
FRKIKLRVDEVQGKNLL [RPS1A]	2.93 ± 0.13
FSEGTSADREIQRTLME [RPT4]	3.29 ± 0.091
FSERAAMFAALQQKQQQ [SWI1]	2.05 ± 0.078
FSSPAALMKTLIKFVDL [NUT1]	1.95 ± 0.12
FSWGRPADSTYGAYNTQ [PRE4]	2.94 ± 0.059
FTCSCNSLTVDGNNANY [RPN14]	2.69 ± 0.058
FTGDFLRRVEERFTKSK [FAS1]	3.19 ± 0.083
FTIDAKPPISDSVFSFG [YLR335W/NUP2]	2.73 ± 0.051
FTLKQWNRLTISVTDTE [COR1]	1.14 ± 0.072
FTNLGIIVQYLTKFRQK [RGR1]	2.35 ± 0.066
FTNRIPSKTPEVYMRYR [SWI3]	2.35 ± 0.068
FTPEEEAAIRRENEWAE [SKP1]	3.34 ± 0.063
FTPKLIYDFITLFSSIE [ECM29]	2.17 ± 0.11
FTQPALTLMEKAAFEDL [FAS1]	2.77 ± 0.091
FTVNVLYPDSSSFKKNL [RPN3]	2.55 ± 0.063
FVDLVEHFLKLNIDFGS [YML103C/NUP188]	2.54 ± 0.11
FVPNDGCLNFVDENDEV [RPS23A]	2.78 ± 0.05
FVPVPSLAGFHKVQTKL [RPS7A]	2.52 ± 0.073
FYMLNAGIRPKFILALN [RPN1]	1.78 ± 0.085
GAAGAWMMNGALQILNS [FAS2]	2.08 ± 0.12

Sequence	protein stability index
GADVTNTTQDNGGDKEL [YCS4]	3.1 ± 0.065
GAHGNSDPVCLFVCNKD [POP3]	3.07 ± 0.084
GAISAVAATNTPIIFIG [SRP54]	2.69 ± 0.073
GAKVKTMRRQKLTILQE [RET1]	2.05 ± 0.14
GALDVEGLCIVAGSKCW [RRP45]	2.87 ± 0.077
GANDLGFTASVSNQENA [MED1]	2.93 ± 0.078
GASTGNANTGFSFGGTQ [YGL172W/NUP49]	1.58 ± 0.097
GAVGLKDLTLCRYSCLA [YCS4]	1.94 ± 0.12
GCGTVKRFNIGADPNYR [RPR2]	3.33 ± 0.09
GCSKICDLSSKFNKSKA [YCS4]	3.16 ± 0.045
GDDVVNDVQGIDDVQTI [RPP1]	3.42 ± 0.067
GDTVRILDTSQSESRQK [SNU114]	2.77 ± 0.05
GDVKNMEDVKIQKEEEP [SWI3]	3.43 ± 0.085
GDYDSHDISRYVRAKFL [PRP8]	1.66 ± 0.16
GEEDAVDLLLEIESIDK [RPN1]	3.25 ± 0.08
GEITFDGIGGLTEQIRE [RPT4]	3.21 ± 0.093
GESIMSEEPTDFGFDLD [MCD1]	3.34 ± 0.072
GFEQVKIALGSPIVNVL [RRI2]	1.48 ± 0.25
GFERLTVNEPQMSDKHA [SRB7]	3.25 ± 0.14
GFETSKNIKIIMATNRL [RPT6]	2.36 ± 0.066
GFFENIETEFLLFTVKL [IRR1]	3.24 ± 0.049
GFKTPKTAIEGSYIDKK [RPS11A]	3.12 ± 0.032
GFNMKKITTSTEDQKVT [SRP68]	2.83 ± 0.074
GFNSIWKIPQNDIPQTE [SSN2]	3.18 ± 0.15
GGGAARRQAVDVSPLRR [RPS5]	2.15 ± 0.11

same assay, conditions: ubr1∆

Sequence	protein stability index
FKLPKKFPPPTPLLENI [BRR2]	2.71 ± 0.048
FKLSSESVIEQIVKYAR [RPS13]	2.72 ± 0.043
